# IntAct's records for PubMed 28691929
# B1: E3 ubiquitin-protein ligase RFWD3 (Homo sapiens), Q6PCD5 (parent)
# chain: MAHEAMEYDVQVQLNHAEQQPAPAGMASSQGGPALLQPVPADVVSSQGVPSILQPAPAEVISSQATPPLLQPAPQLSVDLTEVEVLGEDTVENINPRTSEQHRQGSDGNHTIPASSLHSMTNFISGLQRLHGMLEFLRPSSSNHSVGPMRTRRRVSASRRARAGGSQRTDSARLRAPLDAYFQVSRTQPDLPATTYDSETRNPVSEELQVSSSSDSDSDSSAEYGGVVDQAEESGAVILEEQLAGVSAEQEVTCIDGGKTLPKQPSPQKSEPLLPSASMDEEEGDTCTICLEQWTNAGDHRLSALRCGHLFGYRCISTWLKGQVRKCPQCNKKARHSDIVVLYARTLRALDTSEQERMKSSLLKEQMLRKQAELESAQCRLQLQVLTDKCTRLQRRVQDLQKLTSHQSQNLQQPRGSQAWVLSCSPSSQGQHKHKYHFQKTFTVSQAGNCRIMAYCDALSCLVISQPSPQASFLPGFGVKMLSTANMKSSQYIPMHGKQIRGLAFSSYLRGLLLSASLDNTIKLTSLETNTVVQTYNAGRPVWSCCWCLDEANYIYAGLANGSILVYDVRNTSSHVQELVAQKARCPLVSLSYMPRAASAAFPYGGVLAGTLEDASFWEQKMDFSHWPHVLPLEPGGCIDFQTENSSRHCLVTYRPDKNHTTIRSVLMEMSYRLDDTGNPICSCQPVHTFFGGPTCKLLTKNAIFQSPENDGNILVCTGDEAANSALLWDAASGSLLQDLQTDQPVLDICPFEVNRNSYLATLTEKMVHIYKWE
# Variants of: B1
# Conditions: with rfa2_human RPA2, P15927
# rfa2_human RPA2, P15927, sequence (P15927 whole entry): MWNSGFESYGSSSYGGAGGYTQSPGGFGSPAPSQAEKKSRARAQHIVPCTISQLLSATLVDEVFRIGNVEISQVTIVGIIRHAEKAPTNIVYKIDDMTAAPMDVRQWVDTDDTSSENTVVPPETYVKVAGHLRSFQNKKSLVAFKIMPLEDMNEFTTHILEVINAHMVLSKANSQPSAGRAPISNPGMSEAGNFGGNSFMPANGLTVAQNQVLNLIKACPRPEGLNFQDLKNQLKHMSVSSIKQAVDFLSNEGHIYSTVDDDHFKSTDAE
row,effect of a mutation on the interaction,Variant
1,decreasing interaction strength,I639K

# Variants of: B1
# Conditions: with rfa2_human RPA2, P15927
# Remark: another data set of the same source
row,effect of a mutation on the interaction,Variant
1,disrupting interaction strength,I639K
